Tests used:
Assay in all cases: SEC
[1] = target: SepF from Archaeoglobus fulgidus (Archaeoglobus fulgidus)
[2] = target: CdpB1 from Archaeoglobus fulgidus (Archaeoglobus fulgidus)
[3] = target: CdpB2 from Archaeoglobus fulgidus (Archaeoglobus fulgidus)

With “SepF from Archaeoglobus fulgidus (natural protein)” the stoichiometry N [1] was 2.
“CdpB1 from Archaeoglobus fulgidus (natural protein)” gave a stoichiometry N [2] of 2.
Substance “CdpB2 from Archaeoglobus fulgidus (natural protein)” has a stoichiometry N [3] of 2.
